Data published in the RNAGym collection of RNA variant scans (doi:10.7554/elife.90254).

B1: LINE1-full (parent)
chain: UACGUAGGUGGUUUUCCCCUGAUAGUGCUAAGGGGGCCUGGAAGUUUGGACUGGGCAGAGCUCAACACAGCGUGGCAAAGUGGCUGUGGCUAGACUGCCUCUCUGGAUUCCUCGUCACUCAGCAGGGCAUCUCUGAGAGAAAUGCC

Variants of: B1
Assay: self-cleavage, relative activity (ratio to wild type); higher = more cleavage; in vitro, sequencing; the parent is a self-cleaving ribozyme

Point of comparison: A121G U130C, self-cleavage 1.14. Against it:
- G11A A121U — lower, 0.95
- U134C C145U — lower, 1.1
- G72C C111U — lower, 1.1
- U102C U108A — higher, 1.57
- U15C U108C — higher, 1.99
- U45A A79G — higher, 1.39
- U46A A107U — higher, 1.36
- A78G A129C — higher, 1.96
- U14C G139U — higher, 1.63
- G135A — higher, 1.27
- U23A A107U — lower, 1.1
- C99G A129G — lower, 0.3
- U47A U143A — higher, 1.27
- C61U U85A — lower, 0.03
- G21A G135A — higher, 1.22
- G36A A117G — higher, 1.34
- C63A G97A — lower, 0.01
- C38U A138C — higher, 1.46
- U26C A43C — higher, 1.63
- U47A U132C — higher, 1.41
- G4A A43U — higher, 1.21
- U13G A77U — higher, 1.31
- G8U C37U — higher, 1.51
- U20C G25A — lower, 0.84
- C131A A140G — higher, 1.94
- U15C A57U — lower, 0.11
- U29A U130C — lower, 0.81
- A42U C113A — lower, 0.98
- G8U A124U — higher, 1.47
- C90U G114U — lower, 0.03
- U1A A22U — lower, 0.41
- A78U U134A — higher, 2.08
- U45C U62C — lower, 0.07
- A69G U134A — lower, 0.37
- G8A U134C — higher, 1.55
- C120U A141G — higher, 1.32
- G32A A121U — higher, 1.45
- U15A A31G — lower, 0.55
- G35A A69U — lower, 0.02
- U20C U45A — higher, 1.2
- U29C U85C — lower, 0.28
- G72U U132C — lower, 1.11
- G53U G70C — lower, 0.14
- A22G A67U — lower, 0.23
- G32A U102A — lower, 0.63
- G75A A94U — lower, 0.35
- A57G U85C — lower, 0.16
- U9G U130C — higher, 1.79
- G36A G105A — higher, 1.46
- A57G G83C — lower, 0.17
- A30G G83C — lower, 0.66
- C68U G88A — lower, 0.05
- G21U A92G — lower, 0.1
- A107G G126U — higher, 1.48
- U13A C111U — lower, 0.89
- U96A U108C — lower, 0.08
- U96C A117U — lower, 0.1
- U119A U134A — higher, 1.42
- U26C A31G — lower, 0.91
- A22U A117U — higher, 1.36
- A22U A78G — higher, 1.54
- G55A A124U — lower, 0.19
- U109C U132C — lower, 1.03
- U130A A142C — lower, 0.79
- A57G C66U — lower, 0.05
- U26C A92U — lower, 0.81
- A65G A140U — lower, 0.07
- A64C A94G — lower, 0.14
- A67G A69G — lower, 0.31
- C111A A117G — higher, 1.69
- U119C A142G — higher, 1.33
- U73C U85C — lower, 0.08
- C3A A64G — lower, 0
- U91C U100A — lower, 0.15
- A65G G127U — lower, 0.04
- U85C U134C — lower, 0.26
- U119G U134C — higher, 1.76
- U91C U134C — lower, 0.87
- C103A A142G — higher, 1.41
- A65U A142G — lower, 0.19
- U13C G36A — higher, 1.2
- A42U U100A — lower, 0.62
- C113A U115A — higher, 1.55
- G10A U45C — higher, 1.4
- U81C C128U — higher, 1.19
- U12A U87C — lower, 0.25
- U26A A138G — higher, 1.25
- U12G G80A — higher, 1.64
- U20C U115C — higher, 1.57
- A42G U112A — higher, 2.01
- U12C U87C — lower, 0.21
- U1A U109C — lower, 1.05
- A94C U134C — lower, 0.09
- G97A U112A — lower, 0.16
- U20A G97C — lower, 0.34
- G8C U39C — lower, 0.91
- C18U A142G — higher, 1.27
- U26C A117U — higher, 2.25
- U23G U115C — higher, 1.29
- G55C A141G — lower, 0.55
- U1A A92U — lower, 0.32
- G80C — higher, 1.4
- C51U U130C — higher, 1.4
- U108C A117C — higher, 2.24
- A64U G72C — lower, 0.25
- U20C A59U — lower, 0.82
- A64U C123U — lower, 0.41
- C76U A140U — higher, 2.07
- C63U C90U — lower, 0
- U15A G58A — lower, 0.09
- U13A U26C — higher, 1.19
- U20G U47C — lower, 0
- G74U U143C — higher, 1.48
- A59U U91C — lower, 0.34
- U62C C99A — lower, 0.03
- U39A G48A — higher, 1.22
- C17G A59U — lower, 0.55
- U45A A138G — higher, 1.32
- A117U C128U — lower, 0.86
- G41A U87C — lower, 0.26
- U62A A107G — lower, 0.06
- U20G U96G — lower, 0
- U39C A42G — higher, 1.44
- U96A C116A — lower, 0.21
- U13C C128U — lower, 0.78
- A94U A107U — lower, 0.32
- U119G U143A — lower, 0.95
- U13C U132C — higher, 1.2
- A92U U112C — lower, 0.48
- U81C U119A — higher, 1.59
- U13C A136U — higher, 1.18
- G86U A124G — lower, 0.07
- U20G U109G — lower, 0.43
- U13A U73C — lower, 0.94
- U13C G40A — lower, 0.91
- U46A A140G — lower, 0.9
- A43G A107U — lower, 0.7
- U13C C110U — higher, 1.43
- U39C G127A — lower, 1.03
- A22G A92G — lower, 0.2
- G114A U134C — lower, 1.13
- A124C — higher, 1.56
- U109A U119A — higher, 1.36
- C19A U52C — lower, 0.51
- A77G U104G — higher, 1.87
- A78G A92G — lower, 0.11
- U26C U52C — lower, 0.98
- U96A U100C — lower, 0.08
- U47C U108C — higher, 1.62
- A129U G144A — higher, 1.51
- C71U A141U — higher, 1.46
- G80U U102A — higher, 1.34
- C68A A124G — lower, 0.05
- U46C C56A — lower, 0.28
- A69G U102A — lower, 0.93
- G35U U130C — higher, 1.74
- U46C G82A — higher, 2.42
- U100C A142G — higher, 1.93
- G54A A129G — lower, 0.76
- A64G U115C — lower, 0.27
- A136U A142C — higher, 1.43
- U13C A142U — lower, 1.09
- U62C C133A — lower, 0.06
- U9G A50G — lower, 0.93
- A78G G97A — lower, 0.11
- U13C U73G — lower, 0.91
